According to US6342588 (CAMBRIDGE ANTIBODY TECHNOLOGY, dated 2002):

Biological target: recombinant TGFβ1 (R and D Systems) (UniProt P01137 279-390)
Experiment: method not stated

Chain of recombinant TGFβ1 (R and D Systems) (P01137 279-390 limits assumed): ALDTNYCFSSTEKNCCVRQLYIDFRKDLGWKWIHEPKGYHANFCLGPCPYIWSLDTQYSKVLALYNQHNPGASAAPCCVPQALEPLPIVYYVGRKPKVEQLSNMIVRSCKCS

- Kd: 1.2 nM
B1: 31G9 scFv (scFv)
chain: QVQLVQSGGGVVQPGRSLRLSCAASGFTFSSYGMHWVRQAPGKGLEWVAVISYDGSIKYYADSVKGRFTISRDNSKNTLYLQMNSLRAEDTAVYYCARTGEYSGYDTSGVELWGQGTTVTVSSGGGGSGGGGSGGGGSDIVMTQSPSTLSASVGDRVTITCRASQGISSWLAWYQQKPGRAPKVLIYKASTLESGVPSRFSGSGSGTDFTLTISSLQPEDFATYYCQQSYSTPWTFGQGTKLEIKR
